The experiment addresses T1, SEP3 full length wild type (A. thaliana), O22456.
T1 chain: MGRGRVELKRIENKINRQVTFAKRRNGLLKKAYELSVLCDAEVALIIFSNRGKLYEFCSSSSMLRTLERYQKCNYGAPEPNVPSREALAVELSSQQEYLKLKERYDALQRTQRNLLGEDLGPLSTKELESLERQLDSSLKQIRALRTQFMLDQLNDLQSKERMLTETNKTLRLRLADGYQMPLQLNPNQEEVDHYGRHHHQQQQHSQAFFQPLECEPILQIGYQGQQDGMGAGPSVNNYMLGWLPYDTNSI
Put plainly: native gel or EMSA; in vitro translated proteins (not purified) with Cy5 labelled SOC1 promoter DNA in which CArG box 1 or CArG box 2 is mutated (one site left). As to conditions: remark: other sources report otherwise.

B1: SEP3 full length wild type, O22456 1-251 (natural protein)
chain: MGRGRVELKRIENKINRQVTFAKRRNGLLKKAYELSVLCDAEVALIIFSNRGKLYEFCSSSSMLRTLERYQKCNYGAPEPNVPSREALAVELSSQQEYLKLKERYDALQRTQRNLLGEDLGPLSTKELESLERQLDSSLKQIRALRTQFMLDQLNDLQSKERMLTETNKTLRLRLADGYQMPLQLNPNQEEVDHYGRHHHQQQQHSQAFFQPLECEPILQIGYQGQQDGMGAGPSVNNYMLGWLPYDTNSI
Molecule B1 yielded a stoichiometry N of 4.

Broadly, the stoichiometry N is the number of molecules, sites or subunits per partner or assembly.

For the origin of these results see article PMC4701952.
